The record followed here is paper doi:10.1101/869214.

The target in the assay is calf collagen type I (calf) (UniProt P02453). The assay can be described thus: ELISA. (In general: In an ELISA, binding on a coated surface is turned into a signal by an enzyme label.)
Sequence of UniProt P02453 (P02453 162-1217, chain 1 of 2): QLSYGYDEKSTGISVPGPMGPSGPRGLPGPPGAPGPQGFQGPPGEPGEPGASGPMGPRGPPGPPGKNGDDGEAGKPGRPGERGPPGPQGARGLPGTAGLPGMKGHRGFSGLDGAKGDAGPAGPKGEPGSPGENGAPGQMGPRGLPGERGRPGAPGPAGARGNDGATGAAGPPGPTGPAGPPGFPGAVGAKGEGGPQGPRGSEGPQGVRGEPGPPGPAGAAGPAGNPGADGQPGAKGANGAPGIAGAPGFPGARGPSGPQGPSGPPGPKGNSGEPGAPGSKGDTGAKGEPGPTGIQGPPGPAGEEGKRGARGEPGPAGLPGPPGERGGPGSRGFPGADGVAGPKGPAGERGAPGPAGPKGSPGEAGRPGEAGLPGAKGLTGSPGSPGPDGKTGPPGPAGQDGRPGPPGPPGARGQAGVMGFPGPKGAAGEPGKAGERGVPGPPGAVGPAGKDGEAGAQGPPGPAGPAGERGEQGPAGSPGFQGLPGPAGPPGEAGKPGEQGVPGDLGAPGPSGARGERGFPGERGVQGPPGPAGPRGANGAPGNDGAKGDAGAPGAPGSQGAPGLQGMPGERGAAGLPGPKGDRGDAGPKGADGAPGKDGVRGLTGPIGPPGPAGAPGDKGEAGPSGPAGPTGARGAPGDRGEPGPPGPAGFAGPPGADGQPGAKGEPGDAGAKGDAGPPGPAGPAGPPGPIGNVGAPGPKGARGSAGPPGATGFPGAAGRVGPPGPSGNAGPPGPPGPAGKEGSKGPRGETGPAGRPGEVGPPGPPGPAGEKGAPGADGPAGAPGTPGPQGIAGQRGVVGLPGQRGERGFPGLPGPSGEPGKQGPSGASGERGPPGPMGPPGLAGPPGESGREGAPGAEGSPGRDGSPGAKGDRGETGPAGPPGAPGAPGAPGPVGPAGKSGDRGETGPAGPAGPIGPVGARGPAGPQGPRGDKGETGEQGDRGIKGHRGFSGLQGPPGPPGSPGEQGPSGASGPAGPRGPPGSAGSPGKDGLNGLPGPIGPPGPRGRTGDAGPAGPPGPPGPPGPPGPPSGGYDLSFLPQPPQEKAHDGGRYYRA
Sequence of UniProt P02453 (P02465 80-1117, chain 2 of 2, further chain): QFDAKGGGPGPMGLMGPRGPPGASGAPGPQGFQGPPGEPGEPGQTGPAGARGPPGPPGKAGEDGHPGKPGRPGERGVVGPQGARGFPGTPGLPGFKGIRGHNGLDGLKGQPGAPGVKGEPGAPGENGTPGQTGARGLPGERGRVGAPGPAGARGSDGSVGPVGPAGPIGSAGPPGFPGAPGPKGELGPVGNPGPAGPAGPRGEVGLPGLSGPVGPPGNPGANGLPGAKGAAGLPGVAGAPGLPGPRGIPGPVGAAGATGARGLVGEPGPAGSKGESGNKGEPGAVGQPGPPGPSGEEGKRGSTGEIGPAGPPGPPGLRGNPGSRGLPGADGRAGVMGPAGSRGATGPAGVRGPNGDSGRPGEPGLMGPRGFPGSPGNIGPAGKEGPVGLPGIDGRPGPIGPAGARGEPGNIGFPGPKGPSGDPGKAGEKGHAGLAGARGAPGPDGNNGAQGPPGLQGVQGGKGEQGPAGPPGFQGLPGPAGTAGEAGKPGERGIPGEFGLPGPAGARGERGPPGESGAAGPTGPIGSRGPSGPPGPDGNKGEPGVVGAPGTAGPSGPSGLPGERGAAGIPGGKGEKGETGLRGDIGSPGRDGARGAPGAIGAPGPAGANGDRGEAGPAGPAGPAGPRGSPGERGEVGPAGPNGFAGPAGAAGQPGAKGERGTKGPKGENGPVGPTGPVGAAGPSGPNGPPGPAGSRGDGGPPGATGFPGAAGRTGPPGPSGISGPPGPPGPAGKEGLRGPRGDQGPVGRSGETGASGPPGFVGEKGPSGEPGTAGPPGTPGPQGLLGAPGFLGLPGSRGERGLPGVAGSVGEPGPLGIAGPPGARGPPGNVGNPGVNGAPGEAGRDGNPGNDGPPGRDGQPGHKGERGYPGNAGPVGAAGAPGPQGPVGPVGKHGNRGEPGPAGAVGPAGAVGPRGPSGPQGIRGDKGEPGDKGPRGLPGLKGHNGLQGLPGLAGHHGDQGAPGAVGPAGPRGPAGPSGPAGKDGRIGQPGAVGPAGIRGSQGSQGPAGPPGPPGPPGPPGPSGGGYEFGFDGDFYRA

“Yersinia enterocolitica adhesin YadA head domains with a C-terminal His6-tag (domain or fragment)” yielded a percent binding at pH 4 of 50%.
